Key:
Assay in all cases: cell-based or functional assay
[1] = biological target: AAV8 vector (parental AAV8 capsid) (AAV serotype 8)
[2] = biological target: haploid virus AAV2/8 3:1 (AAV serotype 2; AAV serotype 8) (UniProt P03135)
[3] = biological target: AAV2 vector (parental AAV2 capsid) (AAV serotype 2) (UniProt P03135)
[4] = biological target: haploid virus AAV2/8 1:3 (AAV serotype 2; AAV serotype 8) (UniProt P03135)
[5] = biological target: haploid virus AAV2/8 1:1 (AAV serotype 2; AAV serotype 8) (UniProt P03135)

Substance | Neutralization antibody titer [1] [titer] | Neutralization antibody titer [2] [titer] | Neutralization antibody titer [3] [titer] | Neutralization antibody titer [4] [titer] | Neutralization antibody titer [5] [titer]
monoclonal antibody A20 | < 2 | 2048 | 512 | < 2 | 32
monoclonal antibody ADK8 | 1024 | 512 | < 2 | 1024 | 512

Source: patent publication US20210147877A1
